In patent US12533393B2, “Vibrio cholerae protein for use against cancer” (priority 2019, dated 2026):
Where a SMILES comes first, the peptide text is derived from it. The star is where a group is joined. Cbz = O=C(OCc1ccccc1)*; CH2F = FC*

What was measured:
[1] = tested on: β-catenin in HCT8 and DLD1 cells; experiment: β-catenin signaling in colon cancer cells (western blot, fractionation, confocal); assay type: cell-based, human
Procedure: (§1) Colon carcinoma cells were grown on 8-well chamber slide (3×10^4/well, Millipore) overnight, followed by treatment with MakA for 6 or 24 hours and treated with either Alexa-568 labelled or unlabeled MakA (500 nM), fixed with 2% paraformaldehyde (20 min), permeabilized with Triton X (0.25%). Cells were incubated with anti-Ki67 (1:300), anti-β-catenin (1:300), anti-pAKT (1:100) primary antibodies overnight at +4° C., followed by incubation with corresponding Alexa-488 or Alex-568 conjugated secondary antibodies (1:200) for 1 hour. Finally, cells were counterstained with nuclear marker DAPI for 5 min. Slides were mounted with Fluoromount™ aqueous mounting medium (Sigma) and examined using EZC1 Eclipse laser scanning confocal microscope (Nikon), using 63×/1.4 plan Apo ns lens. Images were captured and processed using the NIS-Elements (Nikon) and ImageJ software.
To examine whether MakA affects β-catenin signaling in human colon cancer cells, HCT8 and DLD1 cells carrying mutations that inactivates APC tumor suppressor gene (Mouradov, D. et al. (2014) Cancer Res. 2014 Jun. 15; 74(12):3238-47) were used.
To address if MakA decreases the nuclear accumulation of β-catenin, cells were treated with MakA and fractionated into cytoplasmic and nuclear fractions.
As caspase-3 mediated fragmentation of β-catenin has been reported (Steinhusen, U. et al. (2000) J Biol Chem 275: 16345-16353), its role in MakA induced β-catenin fragmentation was investigated.

colon carcinoma cells [2] = experiment: Caspase inhibition and MakA-induced cell death; assay type: cell-based, human; details: pretreatment; Presto Blue, MTS, flow cytometry
Procedure: (§2) For cell death experiments, cells were grown on 96-well plate (1×10^4/well, Tecan Group Ltd) overnight and treated with MakA at different concentration for 48 hours at +37° C., 5% CO2. Cell death was quantified by two different biochemical methods: (1) reduction in PrestoBlue staining; and (2) reduction in MTS absorbance. Cell death is expressed as percentage (%) of untreated control cells for PrestoBlue assay or reduction in absorbance for MTS assay.
(§3) For cell death analysis, cells were treated with MakA or vehicle control for 48 h and were subjected to flow cytometry analysis for apoptotic cell death measurement using either Annexin V/Propidium iodide or Annexin V/7AAD (BD Pharmingen) staining according to manufactures instruction. Percentage of apoptotic cells was determined by BD LSRII and BD Accuri C6 flow cytometer (BD Bioscience), respectively.
To address if caspases plays an important role in MakA induced cell death, colon carcinoma cells were pretreated with zVAD-fmk, a pan caspase inhibitor; (Enzolifesciences, Cat #ALX-260-020-M001) followed by treatment with MakA.

HCT8 cells [3] = experiment: MakA with 5FU, tumor cell morphology; assay type: cell-based, human; details: HCT8, compared to untreated control
Procedure: B) Change in tumor cell morphology in response to MakA and 5FU or MakA at different concentration in combination with 5FU (20 μM). Scale bar=30 μm
Further, the effect on tumor cell morphology was investigated. Unlike 5FU or MakA alone, the combination of MakA and 5FU caused massive changes in tumor cell morphology (FIG. 8B).

[4] = tested on: advanced colorectal cancer; details: cited from earlier work
[5] = tested on: human tumor cell lines of diverse origin (HCT8, DLD1, PC3, HTB9, Suit2, MCF7); experiment: Cell death assays (PrestoBlue, MTS) in tumor cell lines; assay type: cell-based; details: 48 hours
Procedure: as §2
(§4) However, overexpression of at least three components (makCBA) or whole operon (makDCBA) was required for induction of lethality to C. elegans (FIG. 1A). The effect of purified MakA protein was investigated on in vitro cultured human tumor cell lines of diverse origin (HCT8 and DLD1=colon cancer cell, PC3=Prostate cancer cells, HTB9=Bladder cancer cell, PC3=Prostate cancer cell, Suit2=Pancreatic cancer cell, MCF7=Breast cancer cells).

[6] = tested on: non-transformed colon cells (CCD-18Co and CCD 841 CoN), prostate (PNT1A) and oral fibroblasts (PDL1); experiment: Cell death assays in non-transformed cells; assay type: cell-based, human; details: at the concentration that effectively killed carcinoma cells
Procedure: as §2, §4

human RBCs = experiment: Hemolysis of human RBCs; assay type: cell-based
Excerpt: However, overexpression of at least three components (makCBA) or whole operon (makDCBA) was required for lethality against C. elegans. (Dongre et al. (2018) Commun Biol. 2018 Jun. 7; 1:59) B) MakA causes cell death in tumor cell lines (HCT8 and DLD1=colon cancer cell, PC3=Prostate cancer cells, HTB9=Bladder cancer cell, PC3=Prostate cancer cell, Suit2=Pancreatic cancer cell, MCF7=Breast cancer cells) of diverse origin. The healthy non-cancerous cells from colon (CCD-18Co and CCD 841 CoN), prostate (PNT1A) and oral fibroblasts (PDL1) were intermediately sensitive compared to tumor cells. […] TritonX-100 (0.1%) induced RBCs hemolysis was used as a positive control. D) MakA induced dramatic changes in tumor cell morphology, unlike non-cancerous PDL1 fibroblasts that were largely unaffected. Scale bar=20 μm.

[7] = tested on: human colon carcinoma cells, HCT8; oral fibroblasts, PDL1; experiment: Live cell microscopy of cell morphology; assay type: cell-based; details: HCT8 versus PDL1
Procedure: Cells were grown in 96 well plate (1×10^4/well, Tecan Group Ltd) overnight and treated with MakA at different concentration for 48 hours at +37° C., 5% CO2. Fluorescence and bright field images were captured with fluorescence microscope (Nikon, Eclipse Ti). Images were processed using the NIS-Elements (Nikon) and ImageJ software. For live cell confocal microscopy, cells were grown on a coverslip and treated with Alexa-568 labelled MakA for 6 or 24 hours at +37° C., 5% CO2.
as §4

HCT8 cells [8] = experiment: Apoptotic cell death by flow cytometry; assay type: cell-based, human; details: 48 h
Procedure: as §3
Apoptotic cell death in response to MakA was investigated using flow cytometry and fluorescent microscopy.

colon carcinoma cells [9] = experiment: Fluorescence and confocal microscopy of apoptosis markers; assay type: cell-based, human
Excerpt: (§5) A) MakA induces concentration-dependent apoptotic cell death in HCT8 cells. B) Quantification of flow cytometry events from (A). […] Scale bar=50 μm. D) MakA induces fragmentation of tumor cell nuclei. Scale bar=10 μm E) Accumulation of Bax (green) to the mitochondria of apoptotic cells by MakA. DAPI was used as a nuclear marker. Scale bar=10 μm. F) MakA caused loss of mitochondrial potential in colon carcinoma cells as evident by loss of DiOC6 staining, quantified by flow cytometry. G) MakA causes activation of pro-apoptotic proteins including caspase 3, cytochrome C and Bax and suppression of antiapoptotic protein, Bcl2.
as §1

colon carcinoma cells [10] = experiment: Mitochondrial potential by DiOC6 staining, flow cytometry; assay type: cell-based, human
Excerpt: as §5

[11] = tested on: Bax, Bcl2, cytochrome c, caspase 3 in HCT8 cells; experiment: Western blotting of apoptosis proteins; assay type: cell-based, human
Excerpt: The regulation of apoptosis involves activation of caspases, increase in Bax/Bcl2 ratio and release of cytochrome c from mitochondria to cytoplasm (Elmore, S. (2007) Toxicol Pathol. 2007; 35(4): 495-516). The effect of MakA on expression of these proteins was investigated using western blotting.
The effect of MakA on expression of cytochrome c and caspase 3 activation was investigated.

tumor cell membrane = experiment: Transmission electron microscopy of membranes; assay type: cell-based; details: versus vehicle (Tris 20 mM)
Excerpt: To address if MakA accumulation at the cell surface may play an important role in tumor cell membrane perturbation, cells treated with MakA were compared to untreated cells and imaged with transmission electron microscopy (TEM). […] The mitochondrial damage was confirmed by confocal microscopy (FIG. 4B).

tumor cell proliferation = experiment: Colony forming assay; assay type: cell-based
Excerpt: The effect of MakA on tumor cell proliferation was investigated.

[12] = tested on: Ki67, cyclin D1, VEGF in HCT8 and DLD1 cells; experiment: Ki67, cyclin D1 and VEGF expression; assay type: cell-based, human
tumor cell migration = experiment: Tumor cell migration; assay type: cell-based
CT26 cell line = experiment: CT26 xenograft mice model of colon cancer; assay type: in vivo; details: repeated intratumor injection, 25 μg, from day 9, sacrificed day 21, versus vehicle
Procedure: (§6) A) Colon cancer was established using the rapidly proliferating CT26 cell line. From day 9, mice were treated by repeated intratumor injection of MakA (25 μg) or Vehicle (Tris 20 mM) at indicated intervals and sacrificed on day 21.
as §6, with “The therapeutic effect of MakA against colon cancer was investigated in a well-established colon cancer model.” for “A)”, “21 (FIG. 7A).” for “21.”

[13] = tested on: PIP5K1α, PLCβ, caspase-3 in HCT8 cells; experiment: Immunoblot of phospholipid signaling proteins; assay type: cell-based, human; details: HCT8, MakA 500 nM
Procedure: The effects of MakA on PIP5K1α, PLCβ, actin and caspase-3 were investigated. For immunoblot analysis, HCT8 cells treated with control or MakA toxin were collected and lysed with lysis buffer containing (50 mM Tris, 100 mM NaCl, 1 mM EDTA, 1 mM DTT, 1% Triton X 100, 2% SDS with 1× protease inhibitor cocktail and 1× phosphatase inhibitor). Protein samples were resolved on SDS-PAGE and processed for immunoblotting according to standard procedures. Antisera used were anti-PIP5K1a polyclonal antiserum (1:2000), anti-PLCβ polyclonal antiserum (1:2000), anti-actin polyclonal antiserum (1:5000), and anti-caspase 3 antiserum (1:1000) (all from Cell Signaling Technology, Inc).

C. elegans = details: MakA overexpressed in E. coli; cited from earlier work
[14] = western blot, HCT8 and DLD1 cells

COC(=O)C[C@H](NC(=O)[C@H](C)NC(=O)[C@@H](NC(=O)OCc1ccccc1)C(C)C)C(=O)CF [zVAD-fmk, reference compound] (Cbz-Val-Ala-Asp(OMe)-CH2F)
effect of caspase inhibitor on MakA-induced β-catenin fragmentation ([1]; HCT8 and DLD1 cells): rescued both HCT8 and DLD1 cells from MakA-induced fragmentation and decrease in β-catenin | effect of caspase inhibitor on MakA-induced cell death (colon carcinoma cells [2]): partially rescued the cells from MakA-induced cell death

O=c1[nH]cc(F)c(=O)[nH]1 [5FU, 5-fluorouracil, reference compound]
tumor cell morphology (HCT8 cells [3]): caused increased cell size | overall response rate [4]: 10-15%

B1: MakA (protein, listed as Vibrio cholerae)
chain: MSQQVTQLNPTQQTTQSAFLATTVITAQCHAILNTQFTPPTVKPDWFDDLSKKLDSAKLVAKQWIDDLGPQVSASIPSSVINFDATFQASIDAIHELYKADPTASGKDNTTVQQASQIMTALSSQVSGIEATVKGMNKELSDWGVKMQAAHDDLVNGATNIQKTIIDLQTDIESMNNAIDNNRAAIEKLNKDLVYAQVAVGVGIFMLVAGVALTVATAGTAAAVSGGIAAVGAASIIAGGVTWGVLQNQIDDDYDSIAQEQKQKAEDQQQIIALQGLSNASSAVVSAIETSTSVLSDFETTWTVFGNELDDVVTKLNNGASMQSIIMEKVMSDAAKNEWDDAVELAKQLASAKIAIETKELAPAVKQAA
cell death in tumor cells [5]: induces cell death in diverse range of tumor cells in a dose-dependent manner | sensitivity of non-transformed cells to MakA [6]: largely unaffected or intermediately sensitive | lysis of human RBCs (human RBCs): failed to induce lysis of human RBCs | plasma membrane remodeling [7]: induced plasma membrane remodeling in human colon carcinoma cells, HCT8 but not in oral fibroblasts, PDL1 | early and late apoptotic cell death (HCT8 cells [8]): dose-dependent increase in both early and late apoptotic cell death | Bax accumulation to mitochondria (colon carcinoma cells [9]): causes accumulation of active Bax to the mitochondria of an apoptotic cell | plasma membrane permeabilization (uptake of propidium iodide) (colon carcinoma cells [9]): causes permeabilization of tumor cell plasma membrane | nuclear staining of apoptotic cells (colon carcinoma cells [9]; fluorescence and confocal microscopy): nuclear fragmentation and chromatin condensation | mitochondrial membrane potential (colon carcinoma cells [10]): caused depolarization of the mitochondrial membrane | caspase 3 activation [11]: activation of caspase 3 | expression of Bax [11]: induction in expression of pro-apoptotic protein, Bax | expression of Bcl2 [11]: decrease in expression of anti-apoptotic protein, Bcl2 | expression of cytochrome c [11]: increase in cytochrome c expression | nuclear membrane by TEM (tumor cell membrane): irregular thin nuclear membrane indicating its damage | plasma membrane and mitochondria by TEM (tumor cell membrane): induced plasma membrane remodelling and mitochondrial damage | β-catenin expression ([1]; HCT8 and DLD1 cells): caused suppression of β-catenin expression in both HCT8 and DLD1 cells | β-catenin localization ([1]; compared to untreated control): accumulate at the plasma membrane | β-catenin expression in cytoplasmic and nuclear fractions ([1]; fractionated cells): caused reduction in β-catenin expression both in cytoplasmic and nuclear fractions | β-catenin fragmentation [1, 14]: β-catenin fragmentation was detected | tumor cell proliferation (tumor cell proliferation): caused significant reduction in tumor cell proliferation | Ki67 positive cells [12]: reduction in number of Ki67 positive cells | cyclin D1 expression [12]: reduction in cyclin D1 expression | expression of VEGF [12, 14]: inhibited in both HCT8 and DLD1 cells | tumor cell migration (tumor cell migration): caused suppression of tumor cell migration in a dose dependent manner | tumor volume (CT26 cell line): caused significant reduction in tumor volume | tumor cell morphology (HCT8 cells [3]): caused rounding of the cells | cleaved caspase-3 [13]: expression of cleaved caspase-3 was also observed | level of PIP5Kα [13]: efficiently reduce the level of PIP5Kα | level of PLC-β [13]: reduced level of PLC-β | lethality to C. elegans (C. elegans): not lethal to C. elegans
